Experiments:
[1] = Inhibition of [14C]BAF312 biotransformation in HLM by CYP-specific chemical inhibitors; settings: for Rate / Relative activity: 5 μM BAF312, HLM 0.1 mg/mL, 90 min
Protocol: The incubations were carried out in 0.1 M phosphate buffer, pH 7.4. Typical incubations of 200 (or 400) μL total volume were prepared as follows: 10 μL of 100 mM MgCl2 (5 mM), stock solutions of CHAPS, substrate and microsomes or recombinant human cytochrome P450 isoenzymes were added to appropriate volume of the buffer. […] Reaction was started by addition of 20 μL of a fresh 10 mM NADPH (1 mM). The final concentrations are given in parentheses. The final concentrations of organic solvent were maximally 0.5% (v/v). For some experiments, higher incubation volumes were prepared by keeping proportionally the quantity of all solutions. The samples were incubated at 37° C. in a thermomixer (Eppendorf 5355) with agitation at 500 rpm.
The incubation reactions were stopped and the protein was precipitated by addition of an equal volume of ice-cold 0.5% formic acid in acetonitrile. After 30 min at −80° C. (or overnight at −20° C.) the samples were centrifuged at 30,000×g for 15 min. The supernatant was withdrawn. Aliquots were analyzed by LSC (20 μL) and the supernatant was diluted appropriately with water to obtain a final solution containing less than 30% of acetonitrile. For samples with lower concentration in substrate, supernatants were evaporated to about the half of initial volumes under reduced pressure at 40° C. with SpeedVac® concentrator (model AES 2010, Savant Inc., Holbrook, N.Y., USA) then mixed with 0.5% formic acid in acetonitrile to obtain a final solution containing less 30% of acetonitrile. Sample solutions were analyzed by HPLC combined with radiodetection. (for HLPC method, see Section 1.6)
The biotransformation of BAF312 was tested at 5 μM substrate concentration in the presence of the 8 individual chemical inhibitors.

[2] = substrate: CCc1cc(/C(C)=N/OCc2ccc(C3CCCCC3)c(C(F)(F)F)c2)ccc1CN1CC(C(=O)O)C1; assay: Enzyme mapping: metabolite formation by recombinant P450 isoenzyme; assay type: in vitro ADME, human; settings: estimated by solving the Michaelis-Menten equation for the 2 substrate concentrations, pH 7.4
Protocol: (§1) Microsomes prepared from baculovirus infected insect cells (BTI-TN-5B1-4) expressing the following human P450 enzymes and the insect cell membrane preparations (negative control) were obtained from BD Biosciences (Woburn, Mass., USA).
(§2) The final concentrations are given in parentheses.
(§3) After 30 min at −80° C. […] The supernatant was withdrawn. […] Sample solutions were analyzed by HPLC combined with radiodetection. (for HLPC method, see Section 1.6)
Mean specific CYP enzyme concentrations in human liver microsomes were obtained from literature values (Rowland Yeo K, Rostami-Hodjegan A and Trucker GT (2004)] Abundance of cytochromes P450 in human liver: a meta-analysis. Br. J. Clinical Pharmacology; 57:687-688). For some recombinant human CYPs, the enzyme kinetic parameters were estimated by calculation assuming Michaelis-Menten type behavior for the two concentrations used, solving a linear equation system for 2 linear equations with 2 variables: […]
Microsomes prepared from baculovirus infected insect cells (BTI-TN-5B1-4) expressing one single human cytochrome P450 isoenzyme were used to assess the involvement of specific enzymes in the biotransformation of [14C]BAF312. Incubation experiments with a panel of 21 recombinant human CYPs (CYP1A1, 1A2, 1B1, 2A6, 2B6, 2C8, 2C9*1, 2C18, 2C19, 2D6*1, 2E1, 2J2, 3A4, 3A5, 3A7, 4A11, 4F2, 4F3A, 4F3B, 4F12 and CYP19) were conducted under similar conditions for each isoenzyme with 10 and 40 μM BAF312 incubation and 30 pmol CYP/mL for 30 min. […] Lower metabolism activities were also observed in incubation with CYP3A4, while some trace metabolism was detected with other CYP isoenzymes (2B6, 2C8, 2C19, 2J2, 3A5, 1A1).

[3] = substrate: CCc1cc(/C(C)=N/OCc2ccc(C3CCCCC3)c(C(F)(F)F)c2)ccc1CN1CC(C(=O)O)C1; assay: Enzyme kinetics of [14C]BAF312 metabolism by rhCYP2C9; assay type: in vitro ADME, human; settings: other: CYP 2C9; obtained from kinetic experiments; pH 7.4
Protocol: The concentration-dependent kinetics of [^14C]BAF312 biotransformation (total metabolites) in rhCYP2C9 (50 pmol/mL) after 60 minutes incubation was plotted as Michaelis-Menten plot (upper) and as Eadie-Hofstee plot (V vs. V/S, bottom) fitted with substrate inhibition model using substrate concentrations 5-300 μM.
as §1, §2, §3
Enzyme kinetic parameters Vmax and Km of the biotransformation by HLM and major metabolizing enzymes were calculated by using SigmaPlot Version 8.0 (S1), Enzyme Kinetics module Version 1.1 software (SPSS Science Inc., Chicago, Ill., USA). The intrinsic clearance was calculated by the equation: CLint=Vmax/Km.
Enzyme kinetics parameters of the isoenzymes CYP2C9 and CYP3A4 for BAF312 metabolism were determined by incubating different concentrations of [^14C]BAF312 with the isoenzyme.

With `N[C@@H]1C[C@H]1c1ccccc1` (racemic) [Tranylcypromine] the “inhibition of BAF312 metabolism” value ([1]; 2 μM and 10 μM inhibitor, 5 μM substrate concentration, HLM) was 11-29%, the Rate ([1]; 2 μM inhibitor) was 15.3 pmol/min/mg and the Relative activity ([1]; 2 μM inhibitor) was 89%. For the same molecule, the Rate ([1]; 10 μM inhibitor) was 12.2 pmol/min/mg and the Relative activity ([1]; 10 μM inhibitor) was 71%.

Work on `S=P(N1CC1)(N1CC1)N1CC1` [Triethylenethiophosphoramide] yielded a Rate ([1]; 5 μM inhibitor) of 18.3 pmol/min/mg, a Relative activity ([1]; 5 μM inhibitor) of 106% and a Rate ([1]; 20 μM inhibitor) of 18.8 pmol/min/mg. The Relative activity ([1]; 20 μM inhibitor) was 109%.

B1: CYP2C19 (Homo sapiens) (protein)
chain: MDPFVVLVLCLSCLLLLSIWRQSSGRGKLPPGPTPLPVIGNILQIDIKDVSKSLTNLSKIYGPVFTLYFGLERMVVLHGYEVVKEALIDLGEEFSGRGHFPLAERANRGFGIVFSNGKRWKEIRRFSLMTLRNFGMGKRSIEDRVQEEARCLVEELRKTKASPCDPTFILGCAPCNVICSIIFQKRFDYKDQQFLNLMEKLNENIRIVSTPWIQICNNFPTIIDYFPGTHNKLLKNLAFMESDILEKVKEHQESMDINNPRDFIDCFLIKMEKEKQNQQSEFTIENLVITAADLLGAGTETTSTTLRYALLLLLKHPEVTAKVQEEIERVIGRNRSPCMQDRGHMPYTDAVVHEVQRYIDLIPTSLPHAVTCDVKFRNYLIPKGTTILTSLTSVLHDNKEFPNPEMFDPRHFLDEGGNFKKSNYFMPFSAGKRICVGEGLARMELFLFLTFILQNFNLKSLIDPKDLDTTPVVNGFASVPPFYQLCFIPV
notes: purchased BD Biosciences 456259; host or cells: baculovirus infected insect cells (BTI-TN-5B1-4)
For B1, the Km ([2]; other: CYP 2C19) was 140 µM, the kcat ([2]; other: CYP 2C19) was 100 pmol/(min · nmol CYP) and the kcat/Km ([2]; other: CYP 2C19) was 0.7 μL/(min. · nmol CYP).

B2: CYP2J2 (Homo sapiens) (protein)
chain: MLAAMGSLAAALWAVVHPRTLLLGTVAFLLAADFLKRRRPKNYPPGPWRLPFLGNFFLVDFEQSHLEVQLFVKKYGNLFSLELGDISAVLITGLPLIKEALIHMDQNFGNRPVTPMREHIFKKNGLIMSSGQAWKEQRRFTLTALRNFGLGKKSLEERIQEEAQHLTEAIKEENGQPFDPHFKINNAVSNIICSITFGERFEYQDSWFQQLLKLLDEVTYLEASKTCQLYNVFPWIMKFLPGPHQTLFSNWKKLKLFVSHMIDKHRKDWNPAETRDFIDAYLKEMSKHTGNPTSSFHEENLICSTLDLFFAGTETTSTTLRWALLYMALYPEIQEKVQAEIDRVIGQGQQPSTAARESMPYTNAVIHEVQRMGNIIPLNVPREVTVDTTLAGYHLPKGTMILTNLTALHRDPTEWATPDTFNPDHFLENGQFKKREAFMPFSIGKRACLGEQLARTELFIFFTSLMQKFTFRPPNNEKLSLKFRMGITISPVSHRLCAVPQV
notes: purchased BD Biosciences 456264; host or cells: baculovirus infected insect cells (BTI-TN-5B1-4)
With B2 the Km ([2]; other: CYP 2J2) was 374 µM, the kcat ([2]; other: CYP 2J2) was 106.7 pmol/(min · nmol CYP) and the kcat/Km ([2]; other: CYP 2J2) was 0.3 μL/(min. · nmol CYP).

B3: CYP1A1 (Homo sapiens) (protein)
chain: MLFPISMSATEFLLASVIFCLVFWVIRASRPQVPKGLKNPPGPWGWPLIGHMLTLGKNPHLALSRMSQQYGDVLQIRIGSTPVVVLSGLDTIRQALVRQGDDFKGRPDLYTFTLISNGQSMSFSPDSGPVWAARRRLAQNGLKSFSIASDPASSTSCYLEEHVSKEAEVLISTLQELMAGPGHFNPYRYVVVSVTNVICAICFGRRYDHNHQELLSLVNLNNNFGEVVGSGNPADFIPILRYLPNPSLNAFKDLNEKFYSFMQKMVKEHYKTFEKGHIRDITDSLIEHCQEKQLDENANVQLSDEKIINIVLDLFGAGFDTVTTAISWSLMYLVMNPRVQRKIQEELDTVIGRSRRPRLSDRSHLPYMEAFILETFRHSSFVPFTIPHSTTRDTSLKGFYIPKGRCVFVNQWQINHDQKLWVNPSEFLPERFLTPDGAIDKVLSEKVIIFGMGKRKCIGETIARWEVFLFLAILLQRVEFSVPLGVKVDMTPIYGLTMKHACCEHFQMQLRS
notes: purchased BD Biosciences 456211; host or cells: baculovirus infected insect cells (BTI-TN-5B1-4)
With B3 the Km ([2]; other: CYP 1A1) was 25.5 µM, the kcat ([2]; other: CYP 1A1) was 47.3 pmol/(min · nmol CYP) and the kcat/Km ([2]; other: CYP 1A1) was 1.9 μL/(min. · nmol CYP).

B4: CYP2C8 (Homo sapiens) (protein)
chain: MEPFVVLVLCLSFMLLFSLWRQSCRRRKLPPGPTPLPIIGNMLQIDVKDICKSFTNFSKVYGPVFTVYFGMNPIVVFHGYEAVKEALIDNGEEFSGRGNSPISQRITKGLGIISSNGKRWKEIRRFSLTTLRNFGMGKRSIEDRVQEEAHCLVEELRKTKASPCDPTFILGCAPCNVICSVVFQKRFDYKDQNFLTLMKRFNENFRILNSPWIQVCNNFPLLIDCFPGTHNKVLKNVALTRSYIREKVKEHQASLDVNNPRDFIDCFLIKMEQEKDNQKSEFNIENLVGTVADLFVAGTETTSTTLRYGLLLLLKHPEVTAKVQEEIDHVIGRHRSPCMQDRSHMPYTDAVVHEIQRYSDLVPTGVPHAVTTDTKFRNYLIPKGTTIMALLTSVLHDDKEFPNPNIFDPGHFLDKNGNFKKSDYFMPFSAGKRICAGEGLARMELFLFLTTILQNFNLKSVDDLKNLNTTAVTKGIVSLPPSYQICFIPV
notes: purchased BD Biosciences 456252; host or cells: baculovirus infected insect cells (BTI-TN-5B1-4)
For B4, the Km ([2]; other: CYP 2C8) was 2.9 µM, the kcat ([2]; other: CYP 2C8) was 14.3 pmol/(min · nmol CYP) and the kcat/Km ([2]; other: CYP 2C8) was 5 μL/(min. · nmol CYP).

B5: rhCYP2C9 (Homo sapiens) (protein)
chain: MDSLVVLVLCLSCLLLLSLWRQSSGRGKLPPGPTPLPVIGNILQIGIKDISKSLTNLSKVYGPVFTLYFGLKPIVVLHGYEAVKEALIDLGEEFSGRGIFPLAERANRGFGIVFSNGKKWKEIRRFSLMTLRNFGMGKRSIEDRVQEEARCLVEELRKTKASPCDPTFILGCAPCNVICSIIFHKRFDYKDQQFLNLMEKLNENIKILSSPWIQICNNFSPIIDYFPGTHNKLLKNVAFMKSYILEKVKEHQESMDMNNPQDFIDCFLMKMEKEKHNQPSEFTIESLENTAVDLFGAGTETTSTTLRYALLLLLKHPEVTAKVQEEIERVIGRNRSPCMQDRSHMPYTDAVVHEVQRYIDLLPTSLPHAVTCDIKFRNYLIPKGTTILISLTSVLHDNKEFPNPEMFDPHHFLDEGGNFKKSKYFMPFSAGKRICVGEALAGMELFLFLTSILQNFNLKSLVDPKNLDTTPVVNGFASVPPFYQLCFIPV
notes: purchased BD Biosciences 456258; host or cells: baculovirus infected insect cells (BTI-TN-5B1-4)
B5 gave a Km [3] of 34.5 µM, a kcat [3] of 2596 ± 233 pmol/min/nmol and a kcat/Km [3] of 1250 M⁻¹ s⁻¹.
